Laboratory results reported in publication PMC3424545 (Nucleic Acids Research, 2012).

Target: T1, His6-tagged Mcm10 (human, UniProt Q7L590 1-875)
T1 sequence (looked up): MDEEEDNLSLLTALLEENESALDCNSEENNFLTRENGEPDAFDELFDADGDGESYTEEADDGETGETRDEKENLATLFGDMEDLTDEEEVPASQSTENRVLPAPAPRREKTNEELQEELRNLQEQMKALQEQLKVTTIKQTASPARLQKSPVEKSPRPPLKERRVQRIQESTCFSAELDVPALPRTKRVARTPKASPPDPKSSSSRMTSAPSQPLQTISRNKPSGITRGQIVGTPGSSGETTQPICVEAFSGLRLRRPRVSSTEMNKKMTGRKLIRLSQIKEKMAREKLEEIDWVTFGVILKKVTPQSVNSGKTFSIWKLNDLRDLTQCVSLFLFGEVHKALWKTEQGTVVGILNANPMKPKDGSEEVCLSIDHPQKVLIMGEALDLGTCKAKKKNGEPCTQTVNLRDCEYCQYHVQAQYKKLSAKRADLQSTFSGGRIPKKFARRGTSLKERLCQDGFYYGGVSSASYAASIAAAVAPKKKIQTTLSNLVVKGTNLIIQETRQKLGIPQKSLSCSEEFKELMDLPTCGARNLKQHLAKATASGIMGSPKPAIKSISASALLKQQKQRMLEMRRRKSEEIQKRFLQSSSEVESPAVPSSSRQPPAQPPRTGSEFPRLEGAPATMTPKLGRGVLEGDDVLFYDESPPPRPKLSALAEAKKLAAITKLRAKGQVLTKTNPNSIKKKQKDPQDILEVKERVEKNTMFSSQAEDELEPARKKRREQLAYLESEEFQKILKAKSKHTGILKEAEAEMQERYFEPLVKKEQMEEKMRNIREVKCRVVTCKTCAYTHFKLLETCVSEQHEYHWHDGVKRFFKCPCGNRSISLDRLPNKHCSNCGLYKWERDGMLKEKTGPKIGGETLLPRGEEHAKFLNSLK
Assay: pull-down

B1: GST-tagged C-terminus VprBP (864-1507) (domain or fragment)
chain: not shown
B1: binds.
